From paper PMC7817217 (2020)

Target: SARS-CoV-2 spike protein receptor binding domain (RBD) (SARS-CoV-2, UniProt P0DTC2 319-541)
Experiment: SPR

B1: bACE2-Rm residues 19 to 615 fused to the mouse Fc tag (bACE2-Rm-mFc) (Fc fusion)
chain: STTEDEAKKFLDKFNSKAEDLSYESSLASWDYNTNISDENVQKMDEAGAKWSAFYEEQSKLAKNYPLEEIQNDTVKRQLQILQQSGSPVLSEDKSKRLNSILNAMSTIYSTGKVCKPNNPQECLLLEPGLDNIMGTSKDYNERLWAWEGWRAEVGKQLRPLYEEYVVLKNEMARGYHYEDYGDYWRRDYETEESSGPGYSRDQLMKDVDRIFTEIKPLYEHLHAYVRAKLMDTYPLHISPTGCLPAHLLGDMWGRFWTNLYPLTVPFGQKPNIDVTDAMLNQGWDANRIFKEAEKFFVSVSLPKMTEGFWNKSMLTEPGDGRKVVCHPTAWDLGKGDFRIKMCTKVTMEDFLTAHHEMGHIQYDMAYASQPYLLRNGANEGFHEAVGEVMSLSVATPKHLKTMGLLSPDFREDDETEINFLLKQALNIVGTLPFTYMLEKWRWMVFKGEIPKEEWMKKWWEMKREIVGVVEPVPHDETYCDPASLFHVANDYSFIRYYTRTIFEFQFHEALCRIAQHNGPLHKCDISNSTDAGKKLHQMLSVGKSQAWTKTLEDIVDSRNMDVGPLLRYFKPLYTWLQEQNRKSYVGWNTDWSPYAD
**Q.** With B1 as the binder, how does the Kd read?
**A.** 500 nM
